Assay results from patent US20200085917A1.

Columns and labels:
Test in all cases: GST pull-down, LC-MS/MS
[1] = target: Suclg2_IPI:IPI00459487.3 (mouse) (UniProt Q9Z2I8)
[2] = target: Hagh_IPI:IPI00115866.2 (mouse) (UniProt Q99KB8)
[3] = target: Afg3l2_IPI:IPI00170357.5 (mouse) (UniProt Q8JZQ2)
[4] = target: Actg1_IPI:IPI00136929.1 (mouse) (UniProt P63260)
[5] = target: Uqcrb_IPI:IPI00132347.1 (mouse) (UniProt Q9D855)
[6] = target: 1700020C11Rik_IPI:IPI00315908.1 (mouse)
[7] = target: Dnaja3_IPI:IPI00120414.1 (mouse) (UniProt Q99M87)
[8] = target: Ywhaz_IPI:IPI00116498.1 (mouse) (UniProt P63101)
Sequence of Ywhaz_IPI:IPI00116498.1 (mouse) (P63101 whole entry): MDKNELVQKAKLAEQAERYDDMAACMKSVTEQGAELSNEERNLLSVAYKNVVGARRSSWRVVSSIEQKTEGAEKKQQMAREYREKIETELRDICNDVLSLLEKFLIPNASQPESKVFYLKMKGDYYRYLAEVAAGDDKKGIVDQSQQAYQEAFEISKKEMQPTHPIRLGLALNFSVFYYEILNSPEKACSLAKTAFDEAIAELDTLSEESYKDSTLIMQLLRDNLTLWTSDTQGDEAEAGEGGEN

[9] = target: Slc6a11_IPI:IPI00136867.1 (mouse) (UniProt P31650)
Sequence of Slc6a11_IPI:IPI00136867.1 (mouse) (P31650 whole entry): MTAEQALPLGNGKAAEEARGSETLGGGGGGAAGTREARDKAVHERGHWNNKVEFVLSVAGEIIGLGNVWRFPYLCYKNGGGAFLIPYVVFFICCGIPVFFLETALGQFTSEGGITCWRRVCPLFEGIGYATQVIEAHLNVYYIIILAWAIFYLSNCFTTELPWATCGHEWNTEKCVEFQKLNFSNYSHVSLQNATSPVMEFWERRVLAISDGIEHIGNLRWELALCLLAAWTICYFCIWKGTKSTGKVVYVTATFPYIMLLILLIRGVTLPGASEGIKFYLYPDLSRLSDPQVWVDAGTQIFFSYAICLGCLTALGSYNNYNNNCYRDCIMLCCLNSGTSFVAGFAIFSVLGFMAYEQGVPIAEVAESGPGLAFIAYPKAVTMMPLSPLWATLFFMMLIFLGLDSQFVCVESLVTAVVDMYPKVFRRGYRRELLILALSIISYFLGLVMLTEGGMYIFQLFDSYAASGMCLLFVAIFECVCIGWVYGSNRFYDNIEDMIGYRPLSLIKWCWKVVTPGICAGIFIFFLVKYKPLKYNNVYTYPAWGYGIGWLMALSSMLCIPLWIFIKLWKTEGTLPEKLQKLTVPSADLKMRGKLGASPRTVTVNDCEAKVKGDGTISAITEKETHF

[10] = target: Rdh13_IPI:IPI00229040.1 (mouse) (UniProt Q8CEE7)
[11] = target: Acp6_IPI:IPI00624175.1 (mouse) (UniProt Q8BP40)
Sequence of Acp6_IPI:IPI00624175.1 (mouse) (Q8BP40 26-418 limits assumed): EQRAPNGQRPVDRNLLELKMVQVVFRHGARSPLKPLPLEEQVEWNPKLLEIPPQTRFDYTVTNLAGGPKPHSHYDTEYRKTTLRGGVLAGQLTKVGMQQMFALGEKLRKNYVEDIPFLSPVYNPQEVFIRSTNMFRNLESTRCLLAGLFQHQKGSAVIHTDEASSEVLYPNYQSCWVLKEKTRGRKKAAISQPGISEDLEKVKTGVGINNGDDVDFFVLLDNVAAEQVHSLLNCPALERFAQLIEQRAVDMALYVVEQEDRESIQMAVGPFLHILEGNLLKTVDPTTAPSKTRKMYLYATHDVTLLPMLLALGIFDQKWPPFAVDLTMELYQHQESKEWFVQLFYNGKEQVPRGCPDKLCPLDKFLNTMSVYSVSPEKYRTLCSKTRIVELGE

[12] = target: Snap25_IPI:IPI00125635.1 (mouse) (UniProt P60879)
[13] = target: Ndufa11_IPI:IPI00318645.6 (mouse) (UniProt Q9D8B4)
Sequence of Ndufa11_IPI:IPI00318645.6 (mouse) (Q9D8B4 whole entry): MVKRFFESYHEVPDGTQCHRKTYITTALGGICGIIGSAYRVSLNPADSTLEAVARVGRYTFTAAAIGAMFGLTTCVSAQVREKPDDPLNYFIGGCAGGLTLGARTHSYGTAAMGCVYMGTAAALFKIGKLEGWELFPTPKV

[14] = target: Asah1_IPI:IPI00125266.1 (mouse) (UniProt Q9WV54)
[15] = target: Lyrm7_IPI:IPI00117832.1 (mouse) (UniProt Q9DA03)
Sequence of Lyrm7_IPI:IPI00117832.1 (mouse) (Q9DA03 whole entry): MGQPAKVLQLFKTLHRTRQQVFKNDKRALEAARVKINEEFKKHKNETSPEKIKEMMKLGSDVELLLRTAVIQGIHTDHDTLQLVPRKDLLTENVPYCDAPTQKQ

[16] = target: Idh3g_IPI:IPI00109169.1 (mouse) (UniProt P70404)
[17] = target: Stoml2_IPI:IPI00115117.1 (mouse) (UniProt Q99JB2)
[18] = target: Rab15_IPI:IPI00170032.1 (mouse) (UniProt Q8K386)
Sequence of Rab15_IPI:IPI00170032.1 (mouse) (Q8K386 whole entry): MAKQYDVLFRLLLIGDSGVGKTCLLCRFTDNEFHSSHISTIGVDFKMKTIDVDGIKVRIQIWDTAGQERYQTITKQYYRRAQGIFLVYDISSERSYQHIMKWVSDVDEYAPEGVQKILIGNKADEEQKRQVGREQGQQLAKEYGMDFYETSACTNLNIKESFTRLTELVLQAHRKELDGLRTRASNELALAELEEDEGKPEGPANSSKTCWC

[19] = target: Hsdl1_IPI:IPI00225301.1 (mouse) (UniProt Q8BTX9)
[20] = target: Tim17a (endogenous, mouse forebrain mitochondria) (mouse) (UniProt Q9Z0V8)
Sequence of Tim17a (endogenous, mouse forebrain mitochondria) (mouse) (Q9Z0V8 whole entry): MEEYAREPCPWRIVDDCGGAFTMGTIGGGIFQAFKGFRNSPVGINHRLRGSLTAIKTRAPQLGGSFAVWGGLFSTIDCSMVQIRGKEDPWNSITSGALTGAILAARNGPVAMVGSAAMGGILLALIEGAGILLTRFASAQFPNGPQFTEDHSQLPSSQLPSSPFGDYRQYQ

[21] = target: Slc25a10_IPI:IPI00317074.3 (mouse) (UniProt Q9QZD8)
[22] = target: Slc25a27_IPI:IPI00108998.1 (mouse) (UniProt Q9D6D0)
Sequence of Slc25a27_IPI:IPI00108998.1 (mouse) (Q9D6D0 whole entry): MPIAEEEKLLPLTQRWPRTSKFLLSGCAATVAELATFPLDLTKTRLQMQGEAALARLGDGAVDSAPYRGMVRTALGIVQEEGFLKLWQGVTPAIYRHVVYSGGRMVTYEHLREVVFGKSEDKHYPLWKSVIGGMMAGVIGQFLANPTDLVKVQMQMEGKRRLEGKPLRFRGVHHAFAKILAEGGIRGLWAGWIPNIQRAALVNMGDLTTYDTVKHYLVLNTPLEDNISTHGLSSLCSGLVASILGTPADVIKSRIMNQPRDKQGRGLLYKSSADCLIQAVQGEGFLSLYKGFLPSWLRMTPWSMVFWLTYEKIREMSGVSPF

[23] = target: Uqcrq_IPI:IPI00224210.5 (mouse) (UniProt Q9CQ69)
[24] = target: Isca2_IPI:IPI00120671.2 (mouse) (UniProt Q9DCB8)
[25] = target: Chchd3_IPI:IPI00133562.1 (mouse) (UniProt Q9CRB9)
[26] = target: Etfa_IPI:IPI00116753.4 (mouse) (UniProt Q99LC5)
Sequence of Etfa_IPI:IPI00116753.4 (mouse) (Q99LC5 20-333 limits assumed): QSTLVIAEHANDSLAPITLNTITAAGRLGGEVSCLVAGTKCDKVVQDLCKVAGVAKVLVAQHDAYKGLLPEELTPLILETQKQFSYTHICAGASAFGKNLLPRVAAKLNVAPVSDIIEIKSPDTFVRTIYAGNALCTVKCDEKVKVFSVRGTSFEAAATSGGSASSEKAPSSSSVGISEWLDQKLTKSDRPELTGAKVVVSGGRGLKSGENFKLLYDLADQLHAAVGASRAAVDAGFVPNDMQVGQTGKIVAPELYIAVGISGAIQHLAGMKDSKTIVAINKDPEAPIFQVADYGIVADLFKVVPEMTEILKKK

[27] = target: Coq3_IPI:IPI00467124.2 (mouse) (UniProt Q8BMS4)
[28] = target: Echs1_IPI:IPI00454049.4 (mouse) (UniProt Q8BH95)
[29] = target: Gm561_IPI:IPI00344567.1 (mouse)
[30] = target: Rtn1_IPI:IPI00395193.1 (mouse) (UniProt Q8K0T0)
Sequence of Rtn1_IPI:IPI00395193.1 (mouse) (Q8K0T0 whole entry): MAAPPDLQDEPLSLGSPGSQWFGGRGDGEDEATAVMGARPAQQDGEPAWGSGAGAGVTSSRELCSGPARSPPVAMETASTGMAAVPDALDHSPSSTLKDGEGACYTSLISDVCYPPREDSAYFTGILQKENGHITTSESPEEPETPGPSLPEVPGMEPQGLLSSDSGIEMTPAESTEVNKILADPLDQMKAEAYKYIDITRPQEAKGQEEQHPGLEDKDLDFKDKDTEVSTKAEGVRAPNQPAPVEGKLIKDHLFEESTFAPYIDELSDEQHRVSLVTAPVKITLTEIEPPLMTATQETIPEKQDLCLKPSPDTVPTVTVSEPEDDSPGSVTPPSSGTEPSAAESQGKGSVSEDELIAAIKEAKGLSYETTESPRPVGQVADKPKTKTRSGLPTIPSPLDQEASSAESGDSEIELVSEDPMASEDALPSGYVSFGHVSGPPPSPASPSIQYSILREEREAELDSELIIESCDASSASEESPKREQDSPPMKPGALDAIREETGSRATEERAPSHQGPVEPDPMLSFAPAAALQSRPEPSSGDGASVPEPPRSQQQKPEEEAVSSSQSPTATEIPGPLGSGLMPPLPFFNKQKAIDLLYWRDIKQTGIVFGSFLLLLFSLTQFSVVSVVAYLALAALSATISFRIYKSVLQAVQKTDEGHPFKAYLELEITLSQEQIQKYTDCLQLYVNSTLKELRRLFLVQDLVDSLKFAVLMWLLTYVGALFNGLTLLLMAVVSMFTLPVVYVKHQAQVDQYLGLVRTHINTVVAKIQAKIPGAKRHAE

[31] = target: Letm1_IPI:IPI00131177.1 (mouse) (UniProt Q9Z2I0)
[32] = target: Slc25a19_IPI:IPI00118826.1 (mouse) (UniProt Q9DAM5)
Sequence of Slc25a19_IPI:IPI00118826.1 (mouse) (Q9DAM5 whole entry): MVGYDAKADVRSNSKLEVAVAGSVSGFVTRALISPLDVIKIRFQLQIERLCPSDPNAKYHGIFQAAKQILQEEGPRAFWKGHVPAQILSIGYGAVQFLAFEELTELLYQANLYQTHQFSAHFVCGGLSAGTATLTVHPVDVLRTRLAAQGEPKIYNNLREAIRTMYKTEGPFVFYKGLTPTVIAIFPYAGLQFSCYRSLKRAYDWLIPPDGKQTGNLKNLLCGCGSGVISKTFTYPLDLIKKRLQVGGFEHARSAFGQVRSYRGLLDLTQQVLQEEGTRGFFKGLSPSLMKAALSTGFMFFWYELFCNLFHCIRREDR

[33] = target: Gstk1_IPI:IPI00121051.3 (mouse) (UniProt Q9DCM2)
Sequence of Gstk1_IPI:IPI00121051.3 (mouse) (Q9DCM2 whole entry): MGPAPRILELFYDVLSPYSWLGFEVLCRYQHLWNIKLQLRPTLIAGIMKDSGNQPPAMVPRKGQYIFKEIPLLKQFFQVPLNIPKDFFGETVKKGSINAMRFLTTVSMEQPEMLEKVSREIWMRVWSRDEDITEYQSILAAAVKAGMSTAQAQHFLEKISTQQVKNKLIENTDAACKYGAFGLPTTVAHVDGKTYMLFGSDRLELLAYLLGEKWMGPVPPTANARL

Sequence of GST-Httex1-97Q (P08515 1-218, tags or fused parts left off): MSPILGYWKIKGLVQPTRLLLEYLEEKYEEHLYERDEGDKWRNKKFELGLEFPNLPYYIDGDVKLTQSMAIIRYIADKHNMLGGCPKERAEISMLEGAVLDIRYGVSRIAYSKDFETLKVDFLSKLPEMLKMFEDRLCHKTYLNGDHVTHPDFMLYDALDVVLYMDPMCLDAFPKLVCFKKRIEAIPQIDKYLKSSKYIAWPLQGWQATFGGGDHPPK
Sequence of Afg3l2_IPI:IPI00170357.5 (mouse) (Q8JZQ2 67-802 limits assumed): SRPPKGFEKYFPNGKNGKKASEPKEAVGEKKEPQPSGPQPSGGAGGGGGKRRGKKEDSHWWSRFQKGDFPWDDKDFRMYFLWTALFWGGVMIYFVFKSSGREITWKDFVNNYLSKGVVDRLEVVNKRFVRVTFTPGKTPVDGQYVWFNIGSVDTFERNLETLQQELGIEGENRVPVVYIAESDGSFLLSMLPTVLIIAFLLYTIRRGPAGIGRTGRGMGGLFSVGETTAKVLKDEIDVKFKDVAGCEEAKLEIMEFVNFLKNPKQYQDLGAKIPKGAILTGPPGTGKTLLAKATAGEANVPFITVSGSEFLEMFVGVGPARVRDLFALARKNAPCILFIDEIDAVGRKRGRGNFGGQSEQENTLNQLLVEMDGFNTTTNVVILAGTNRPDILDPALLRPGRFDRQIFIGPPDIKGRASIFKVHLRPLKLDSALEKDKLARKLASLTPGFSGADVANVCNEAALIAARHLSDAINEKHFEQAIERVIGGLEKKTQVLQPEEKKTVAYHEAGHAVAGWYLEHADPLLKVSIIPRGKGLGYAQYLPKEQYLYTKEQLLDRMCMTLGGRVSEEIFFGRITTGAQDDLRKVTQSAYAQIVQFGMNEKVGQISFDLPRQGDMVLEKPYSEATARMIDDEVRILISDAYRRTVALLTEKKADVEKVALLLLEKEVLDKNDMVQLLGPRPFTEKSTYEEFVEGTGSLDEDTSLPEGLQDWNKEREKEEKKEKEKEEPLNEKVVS

Substance: GST-Httex1-97Q (from UniProt P08515 1-218; P42858 1-88)
- No. of total peptides [1]: 2 peptides
- No. of unique peptides [1]: 2 peptides
- No. of total peptides [2]: 2 peptides
- No. of unique peptides [2]: 2 peptides
- No. of total peptides [3]: 5 peptides
- No. of unique peptides [3]: 4 peptides
- No. of total peptides [4]: 1 peptides
- No. of unique peptides [4]: 1 peptides
- No. of total peptides [5]: 1 peptides
- No. of unique peptides [5]: 1 peptides
- No. of total peptides [6]: 1 peptides
- No. of unique peptides [6]: 1 peptides
- No. of total peptides [7]: 1 peptides
- No. of unique peptides [7]: 1 peptides
- No. of total peptides [8]: 1 peptides
- No. of unique peptides [8]: 1 peptides
- No. of total peptides [9]: 1 peptides
- No. of unique peptides [9]: 1 peptides
- No. of total peptides [10]: 1 peptides
- No. of unique peptides [10]: 1 peptides
- No. of total peptides [11]: 2 peptides
- No. of unique peptides [11]: 2 peptides
- No. of total peptides [12]: 1 peptides
- No. of unique peptides [12]: 1 peptides
- No. of total peptides [13]: 1 peptides
- No. of unique peptides [13]: 1 peptides
- No. of total peptides [14]: 3 peptides
- No. of unique peptides [14]: 3 peptides
- No. of total peptides [15]: 1 peptides
- No. of unique peptides [15]: 1 peptides
- No. of total peptides [16]: 2 peptides
- No. of unique peptides [16]: 2 peptides
- No. of total peptides [17]: 1 peptides
- No. of unique peptides [17]: 1 peptides
- No. of total peptides [18]: 1 peptides
- No. of unique peptides [18]: 1 peptides
- No. of total peptides [19]: 2 peptides
- No. of unique peptides [19]: 2 peptides
- No. of total peptides [20]: 1 peptides
- No. of unique peptides [20]: 1 peptides
- No. of total peptides [21]: 1 peptides
- No. of unique peptides [21]: 1 peptides
- No. of total peptides [22]: 2 peptides
- No. of unique peptides [22]: 2 peptides
- No. of total peptides [23]: 1 peptides
- No. of unique peptides [23]: 1 peptides
- No. of total peptides [24]: 3 peptides
- No. of unique peptides [24]: 3 peptides
- No. of total peptides [25]: 2 peptides
- No. of unique peptides [25]: 2 peptides
- No. of total peptides [26]: 4 peptides
- No. of unique peptides [26]: 3 peptides
- No. of total peptides [27]: 2 peptides
- No. of unique peptides [27]: 1 peptides
- No. of total peptides [28]: 5 peptides
- No. of unique peptides [28]: 5 peptides
- No. of total peptides [29]: 2 peptides
- No. of unique peptides [29]: 2 peptides
- No. of total peptides [30]: 1 peptides
- No. of unique peptides [30]: 1 peptides
- No. of total peptides [31]: 4 peptides
- No. of unique peptides [31]: 4 peptides
- No. of total peptides [32]: 1 peptides
- No. of unique peptides [32]: 1 peptides
- No. of total peptides [33]: 1 peptides
- No. of unique peptides [33]: 1 peptides
